Data from article PMC10119292, “Characterization of a fold in TANGO1 evolved from SH3 domains for the export of bulky cargos” (Nature Communications, 2023).

T1: human Otoraplin, residues 18-128 (human, UniProt Q9NRC9 18-128)
T1 construct: Otoraplin, human, UniProt Q9NRC9, residues 18-128; [U-15N]-enriched for the NMR titrations; also called Otoraplin (18-128); not shown: His-tag, N-terminal, cleaved
T1 sequence (looked up): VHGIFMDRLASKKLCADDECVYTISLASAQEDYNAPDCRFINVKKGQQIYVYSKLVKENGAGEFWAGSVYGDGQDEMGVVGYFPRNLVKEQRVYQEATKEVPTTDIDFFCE

B1: Drosophila melanogaster TANGO1 cargo-recognition domain, residues 30-139 (domain or fragment)
chain: TLTWAATLSDKRLCADPKCEQIISMGIAKITYAIGGEGLISFKINSPIRVLSKSAGSNMQLWGVDINGRRGYANKDFIMEKKILVRDKDLLYEVPVVGPGSPVQSVETPV
B2: human TANGO1 MOTH domain with C-terminal helix, residues 21-151 (domain or fragment)
chain: PGQLDPSTGRRFSEHKLCADDECSMLMYRGEALEDFTGPDCRFVNFKKGDPVYVYYKLARGWPEVWAGSVGRTFGYFPKDLIQVVHEYTKEELQVPTDETDFVCFDGGRDDFHNYNVEELLGFLELYNSAA
B3: human TALI MOTH domain, residues 23-123 (domain or fragment)
chain: TKLLADLKKCGDLECEALINRVSAMRDYRGPDCRYLNFTKGEEISVYVKLAGEREDLWAGSKGKEFGYFPRDAVQIEEVFISEEIQMSTKESDFLCLLGVS
B4: human Otoraplin, residues 18-128 (domain or fragment)
chain: T1 sequence (looked up)
B5: SOS1 (1149-1158), class II PPII helix peptide (peptide, UniProt Q07889 1149-1158, looked up)
peptide: VPPPVPPRRR
notes: SOS1, residues 1149-1158; also called class II ligand; PPII class II ligand; source: synthetic peptide
B6: synthetic peptide of human TANGO1 residues 132-151 (predicted C-terminal helix) (peptide, UniProt Q5JRA6 132-151, looked up)
peptide: FHNYNVEELLGFLELYNSAA
notes: TANGO1, human, UniProt Q5JRA6, residues 132-151; also called C-terminal helix peptide; peptide corresponding to residues 132–151; source: synthetic peptide

What was measured:
[1] = target: Collagen type IV from human placenta (human) (UniProt P08572); assay: MST; RED-NHS-labeled collagen type IV constant at 25 nM, unlabeled partner varied (16 1:1 dilutions); 10 mM HEPES pH 7.2, 150 mM NaCl, 0.005% Tween-20, 15 µM BSA; 25 °C; 60% LED power, high MST power, MST-on time 1.5 s
[2] = target: T1, human Otoraplin, residues 18-128; assay: NMR titration; 1H-15N HSQC series of [U-15N]-Otoraplin with SOS1 (1149-1158) at protein:peptide ratios 1:0.5 to 1:50; PBS pH 7.4, 298 K; two-dimensional lineshape analysis (TITAN), two-state binding model; conditions: both partners purified
[3] = target: human TANGO1 cargo-recognition (MOTH) domain, residues 21-131 (human, UniProt Q5JRA6-4 21-131, disulfides Cys38-Cys43 and Cys61-Cys124; cis-Pro83; His-tag removed with TEV (PDB 7R3M entity has one extra N-terminal Met); 15N or 15N/13C labelled for NMR); assay: NMR titration; 1H-15N HSQC series of 208 µM [U-15N]-hsTANGO1(21-131) with peptide 132-151 at ratios 1:0.25 to 1:6; 25 mM HEPES pH 7.4, 150 mM NaCl, 298 K; two-dimensional lineshape analysis (TITAN), two-state binding model; conditions: both partners purified
Chain of human TANGO1 cargo-recognition (MOTH) domain, residues 21-131 (Q5JRA6 other isoform, or with tags, fused parts or gaps): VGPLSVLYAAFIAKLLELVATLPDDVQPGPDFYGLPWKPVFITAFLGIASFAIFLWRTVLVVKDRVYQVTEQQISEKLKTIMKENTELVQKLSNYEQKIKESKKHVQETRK

Binder	Kd [1] [µM]	further results
B1	6.9	
B2	3.3	
B3	11.4	
B4	9.9	
B5		Kd [2]: 1.3 mM; koff [2]: 350000 s⁻¹
B6		Kd [3]: 321 µM; koff [3]: 1100 s⁻¹
